Key:
Experiment in all cases: ELISA; dose-response of S protein binding to ACE2 and C-type lectins; which partner was coated and how binding was detected is not given for this experiment
[1] = biological target: Recombinant human CLEC2 (human) (UniProt Q9P126)
[2] = biological target: Recombinant human L‐SIGN (human) (UniProt Q9H2X3)
[3] = biological target: Recombinant human DC‐SIGN (human) (UniProt Q9NNX6)
[4] = biological target: Recombinant human CLEC10A (human) (UniProt Q8IUN9)
[5] = biological target: Recombinant human CLEC5A (human) (UniProt Q9NY25)
Sequence of UniProt Q9NY25 (Q9NY25 whole entry): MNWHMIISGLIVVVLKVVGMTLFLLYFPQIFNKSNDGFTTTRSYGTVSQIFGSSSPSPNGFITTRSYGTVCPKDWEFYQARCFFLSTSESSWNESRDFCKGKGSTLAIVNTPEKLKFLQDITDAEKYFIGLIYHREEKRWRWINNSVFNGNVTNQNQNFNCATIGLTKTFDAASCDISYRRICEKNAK

Sequence of UniProt Q8IUN9 (Q8IUN9 whole entry): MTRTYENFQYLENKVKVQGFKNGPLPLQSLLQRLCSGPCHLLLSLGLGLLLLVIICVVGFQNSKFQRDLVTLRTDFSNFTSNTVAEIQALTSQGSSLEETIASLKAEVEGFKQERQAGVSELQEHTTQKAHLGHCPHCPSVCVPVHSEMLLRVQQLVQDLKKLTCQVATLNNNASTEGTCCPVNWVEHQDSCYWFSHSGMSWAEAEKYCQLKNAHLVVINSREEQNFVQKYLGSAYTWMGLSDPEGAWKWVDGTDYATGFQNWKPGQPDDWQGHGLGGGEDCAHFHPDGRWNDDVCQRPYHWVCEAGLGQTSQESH
Sequence of UniProt Q9H2X3 (Q9H2X3 whole entry): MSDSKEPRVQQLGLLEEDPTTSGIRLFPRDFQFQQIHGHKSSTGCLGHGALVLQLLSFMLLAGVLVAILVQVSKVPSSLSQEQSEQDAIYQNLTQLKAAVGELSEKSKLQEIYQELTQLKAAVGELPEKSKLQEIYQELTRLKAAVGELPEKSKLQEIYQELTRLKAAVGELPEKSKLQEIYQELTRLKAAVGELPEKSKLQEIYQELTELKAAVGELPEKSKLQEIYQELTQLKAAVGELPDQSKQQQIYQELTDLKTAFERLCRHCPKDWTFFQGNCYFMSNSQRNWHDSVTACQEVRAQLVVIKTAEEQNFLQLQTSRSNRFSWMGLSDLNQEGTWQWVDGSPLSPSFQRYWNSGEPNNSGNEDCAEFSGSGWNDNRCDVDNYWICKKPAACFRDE
Sequence of UniProt Q9P126 (Q9P126 whole entry): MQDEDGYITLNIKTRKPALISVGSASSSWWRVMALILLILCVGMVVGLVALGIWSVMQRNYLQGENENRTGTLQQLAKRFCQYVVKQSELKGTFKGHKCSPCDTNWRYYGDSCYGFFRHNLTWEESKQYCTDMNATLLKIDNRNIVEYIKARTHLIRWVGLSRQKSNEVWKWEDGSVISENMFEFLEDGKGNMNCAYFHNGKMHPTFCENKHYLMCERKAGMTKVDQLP
Sequence of UniProt Q9NNX6 (Q9NNX6 whole entry): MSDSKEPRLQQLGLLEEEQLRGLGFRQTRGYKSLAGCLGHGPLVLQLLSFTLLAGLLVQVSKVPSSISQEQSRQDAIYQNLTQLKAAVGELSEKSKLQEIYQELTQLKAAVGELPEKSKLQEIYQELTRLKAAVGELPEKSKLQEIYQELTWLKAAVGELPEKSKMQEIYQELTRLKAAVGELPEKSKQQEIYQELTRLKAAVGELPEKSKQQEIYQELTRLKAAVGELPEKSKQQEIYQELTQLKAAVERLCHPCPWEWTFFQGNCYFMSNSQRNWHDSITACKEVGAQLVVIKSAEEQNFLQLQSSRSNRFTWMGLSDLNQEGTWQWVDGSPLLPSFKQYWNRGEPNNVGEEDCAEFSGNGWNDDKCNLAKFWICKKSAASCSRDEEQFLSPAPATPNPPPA

SARS‐CoV‐2 spike (S) protein (from UniProt P0DTC2 14-1213) (natural protein)
EC50 [1]: 7.69 nM
EC50 [2]: 5.15 nM
EC50 [3]: 4.59 nM
EC50 [4]: 9.75 nM
EC50 [5]: 6.41 nM

— paper PMC12499391
